B1: library; numbered along this chain (parent)
chain: MAAAGGARLLRAASAVLGGPAGRWLHHAGSRAGSSGLLRNRGPGGSAEASRSLSVSARARSSSEDKITVHFINRDGETLTTKGKVGDSLLDVVVENNLDIDGFGACEGTLACSTCHLIFEDHIYEKLDAITDEENDMLDLAYGLTDRSRLGCQICLTKSMDNMTVRVPETVADARQSIDVGKTS

Variants of: B1
Assay: scaled log2 fold change in cell abundance, elesclomol vs control (0 = silent mean, 1 = nonsense mean) (scaled log2 ratio); higher = higher viability under elesclomol (loss of FDX1 cuproptosis function)
Conditions: glucose 10 mM
[1] = with ABC1 FDX1 KO, elesclomol 5 nM, 14 days
[2] = with HEK293T FDX1 KO, elesclomol 40 nM, 11 days
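Note: variant abundance is its share of total variant reads in each endpoint sample, from next-generation sequencing of the integrated ORF PCR-amplified out of genomic DNA.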

Variant | scaled log2 fold change [1] | scaled log2 fold change [2]
S159Q | -0.52 | –
S159E | -0.499 | -0.34
S159N | 0.273 | -0.128
S159G | -1.03 | -0.767
S159C | 0.095 | -0.0429
S159R | -0.282 | 0.159
S159F | -0.798 | 0.523
S159P | -1.13 | -0.284
S159T | -0.475 | 0.754
S159H | -0.58 | 0.214
S159D | -1.07 | -0.414
S159L | -0.241 | 0.847
S159I | -0.459 | 0.0583
S159Y | -0.0652 | -0.463
S159V | 0.225 | 0.738
S159W | 0.0873 | 0.215
S159A | 0.168 | -0.0471
S159K | 0.382 | -0.162
S159M | -0.149 | -0.209
L156D | 1.12 | 0.926
L156Q | 0.697 | 0.562
L156R | 1.06 | 1.1
L156C | 0.353 | 0.332
L156A | 0.194 | -1

Variant | scaled log2 fold change [1] | scaled log2 fold change [2]
L156V | -0.38 | 0.664
L156F | 0.599 | -0.036
L156I | -0.0958 | -0.948
L156E | 1.11 | 1.53
L156T | 0.139 | 0.0718
L156H | 1.07 | 1.03
L156G | 0.709 | 0.904
L156M | -0.318 | -0.383
L156P | 0.268 | 0.446
L156Y | 1.07 | 0.941
L156W | 1.06 | 1.36
L156N | 0.8 | 0.347
L156K | 1.05 | 1.71
L156S | 0.388 | 0.852
T157G | -0.366 | 0.895
T157Y | 0.175 | -0.241
T157C | 0.0208 | 0.206
T157K | 0.0573 | -0.19
T157D | 0.102 | -0.275
T157A | 0.304 | 0.871
T157L | -0.0209 | -0.588
T157N | -0.181 | –
T157M | 0.046 | 0.00875
T157Q | 0.0955 | 1.04

Variant | scaled log2 fold change [1] | scaled log2 fold change [2]
T157S | 0.365 | 0.742
T157V | -0.108 | -0.969
T157F | 0.0938 | 0.986
T157H | -0.268 | -0.000268
T157I | -0.909 | -0.784
T157P | 0.927 | 0.296
T157R | 0.294 | 0.0556
T157E | 0.0855 | -0.0584
C155N | -0.0685 | –
C155T | -0.251 | -0.435
C155F | -0.0473 | -0.0932
C155D | 0.24 | -1.76
C155P | 0.0631 | 0.21
C155E | -0.828 | -0.236
C155R | -0.248 | -1.26
C155G | -0.0608 | -0.601
C155L | 0.0756 | -0.359
C155Q | 0.507 | –
C155V | -0.17 | -0.185
C155W | -0.0475 | 0.246
C155S | 0.114 | -0.635
C155M | 0.338 | 0.969
C155A | -0.331 | -0.584
C155H | -1.03 | -0.48

Variant | scaled log2 fold change [1] | scaled log2 fold change [2]
C155I | 0.0211 | -0.117
C155K | -0.165 | 6.73e-05
C155Y | -0.378 | -0.939
Q153W | 0.543 | 0.414
Q153S | 0.243 | 0.372
Q153N | -0.0628 | 0.314
Q153Y | 0.621 | 0.0427
Q153I | 0.0471 | -0.458
Q153M | -0.153 | -0.595
Q153L | 0.241 | -0.00657
Q153P | 0.884 | 0.923
Q153T | 0.212 | -0.179
Q153R | -0.0672 | 1.14
Q153V | -0.0289 | 0.299
Q153K | 0.016 | 0.139
T164E | -0.00918 | 0.119
T164L | -0.159 | -0.224
T164Y | -1.38 | 0.173
T164G | 0.367 | -0.293
T164W | -0.403 | -0.13
T164A | 0.408 | 0.0905
T164N | 0.361 | 1.04
T164S | -0.253 | 0.99
T164D | 0.108 | 0.818

Variant | scaled log2 fold change [1] | scaled log2 fold change [2]
T164R | -0.0678 | -0.0374
T164H | 0.213 | -0.0955
T164P | 0.508 | -0.0295
T164V | 0.342 | 1.31
T164F | 0.0235 | -0.4
T164I | -0.259 | -0.338
T164M | -0.076 | -0.072
T164Q | -0.171 | –
T164C | 0.25 | 0.194
T164K | -0.0707 | 0.0715
I154F | 0.839 | 0.781
I154C | -0.101 | 0.0571
I154Y | 0.82 | 0.121
I154K | 0.995 | 0.727
I154N | 0.748 | 0.148
I154L | 0.117 | 0.0996
I154H | 0.392 | 0.163
I154W | 0.968 | 0.877
I154A | 0.161 | 0.851
I154D | 1.18 | 1.22
I154R | 1.01 | 0.787
I154Q | 0.399 | 0.268
I154P | 1.04 | 0.814
I154E | 1.05 | 0.819

Variant | scaled log2 fold change [1] | scaled log2 fold change [2]
I154M | 0.363 | 0.583
I154S | 0.481 | 0.0924
I154T | -0.043 | -0.257
I154G | 1.1 | 1.27
I154V | -0.0239 | -1.6
V165P | 0.71 | 0.4
V165C | 0.0302 | 0.944
V165R | 1.09 | 1.45
V165G | 0.475 | 0.411
V165F | 0.53 | 0.286
V165M | -0.123 | -0.424
V165I | -0.183 | -0.249
V165A | -0.0573 | -0.318
V165D | 1.12 | 0.895
V165K | 1.08 | 1.01
V165Q | 1.06 | 1.21
V165H | 1.12 | 0.873
V165E | 1.06 | 1.35
V165N | 0.812 | 1.02
V165L | -0.0209 | -0.834
N162E | 0.0612 | 0.838
N162I | -0.0298 | -0.611
N162H | -0.203 | 0.208
N162P | 0.182 | -0.234

Variant | scaled log2 fold change [1] | scaled log2 fold change [2]
N162K | -0.0702 | 0.386
N162G | -0.601 | –
N162M | 0.128 | -0.13
N162Y | 0.0965 | 0.0713
N162W | 0.1 | 0.831
N162S | 0.162 | –
N162L | -0.0365 | -0.341
N162Q | 0.14 | -1.17
N162V | 0.0601 | 0.0858
N162R | 0.34 | -0.871
N162D | -0.354 | 0.0725
N162T | -0.0302 | 0.362
N162C | -0.275 | 0.0594
N162A | 0.23 | 0.844
N162F | 0.167 | -0.244
M160S | 0.278 | 0.0347
M160F | 0.0868 | 0.149
M160W | 0.366 | -0.0391
M160Y | 0.274 | 0.713
M160H | -0.251 | 0.0298
M160I | 0.353 | 0.63
M160E | 0.143 | -0.299
M160C | -0.675 | -0.515
M160A | 0.233 | -0.241

Variant | scaled log2 fold change [1] | scaled log2 fold change [2]
M160Q | 0.0622 | 0.682
M160R | 0.249 | 0.049
M160G | 0.381 | 0.247
M160P | 1.06 | 1.11
M160L | -0.304 | –
M160N | 0.245 | -0.0466
M160D | -0.132 | 0.103
M160T | 0.347 | 0.674
M160K | -0.0408 | 1.28
M160V | -0.27 | –
M163I | 0.122 | 0.861
M163A | -0.185 | –
M163L | 0.385 | 0.864
M163T | -0.131 | 0.00152
M163Q | 0.357 | -0.237
M163H | 0.707 | 0.257
M163N | 0.51 | 0.528
M163K | 0.823 | 0.16
M163R | 0.657 | -0.245
M163F | 0.518 | -0.42
M163S | -0.173 | 0.99
M163Y | 0.547 | -0.538
M163V | -0.168 | 0.941
M163W | 0.598 | 0.247

Variant | scaled log2 fold change [1] | scaled log2 fold change [2]
M163C | -0.512 | 0.319
M163P | 0.859 | 0.441
M163D | 1.16 | 0.514
M163E | 0.522 | 0.691
M163G | 0.325 | -0.225
K158R | 0.0874 | -0.484
K158Q | -0.363 | -0.446
K158M | 0.185 | -0.505
K158I | -0.0888 | -0.515
K158G | -0.426 | -0.842
K158S | 0.23 | -0.645
K158V | 0.0943 | -0.343
K158D | 0.233 | 0.95
K158F | 0.241 | 0.189
K158C | 0.225 | 0.192
K158P | 0.0465 | 0.515
K158T | -0.0261 | 0.646
K158L | 0.172 | -0.122
K158N | -0.716 | -0.562
K158H | 0.174 | -0.704
K158E | -0.265 | 0.159
K158Y | 0.0178 | -1.33
K158W | 0.161 | -0.562
K158A | -0.146 | 0.138

Variant | scaled log2 fold change [1] | scaled log2 fold change [2]
D161R | 0.243 | 0.406
D161V | -0.562 | 0.103
D161L | 0.312 | 0.16
D161H | -0.161 | -0.464
D161S | 0.299 | -0.0997
D161I | 0.0246 | -0.332
D161P | 0.586 | 0.0492
D161W | 0.197 | -0.0327
D161N | 0.064 | -0.539
D161Y | 0.284 | 0.145
D161K | 0.234 | 0.181
D161M | -0.0698 | -0.0785
D161T | 0.262 | -0.0378
D161C | 0.35 | 0.607
D161E | -0.0246 | 0.705
D161Q | 0.0687 | –
D161F | 0.305 | 0.236
D161G | -0.198 | –
D161A | -0.111 | –

From the supplement of paper PMC12855868
